# Data published in article PMC12866175 (European journal of nuclear medicine and molecular imaging, 2021).
# Experiments:
# [1] = system: non-tumor-bearing BALB/c mice; assay: Toxicity, single intravenous injection, 5 months; assay type: in vivo
# [2] = design: species or system BALB/c mice; conditions: mouse, in vivo
smiles,measurement,setting,value
"C[C@@H](O)[C@H](NC(=O)[C@@H]1CSSC[C@H](NC(=O)[C@@H](Cc2ccccc2)NC(=O)CN2CCN(CC(=O)O)CCN(CC(=O)O)CCN(CC(=O)O)CC2)C(=O)N[C@@H](Cc2ccc(O)cc2)C(=O)N[C@H](Cc2c[nH]c3ccccc23)C(=O)N[C@@H](CCCCN)C(=O)N[C@@H]([C@@H](C)O)C(=O)N1)C(=O)O [[^225Ac]Ac-DOTA-TATE, metal not drawn]",ALKP among the cohorts,"[1]; mouse, in vivo",No significant differences
same,ALT among the cohorts,"[1]; mouse, in vivo",No significant differences
same,AST among the cohorts,"[1]; mouse, in vivo",No significant differences
same,Blood BUN,"[1]; mouse, in vivo",in the normal range
same,Blood creatinine,"[1]; mouse, in vivo",in the normal range
same,acute kidney damage by pathology,"[1]; mouse, in vivo",no acute kidney damage
same,damage in the liver or other tissues by pathology,"[1]; mouse, in vivo",no treatment related damage
same,survival,[1]; to 5 months p.i.,all animals survived
same,clearance of activity from the tissues,[2],largely cleared
